A short description of the data set: soluble on expression in E. coli; label from the status in PepcDB or PDB records.
With “MHHHHHHSSGVDLGTENLYFQSMCAAQMPPLAHIFRGTFVHSTWTCPMEVLRDHLLGVSDSGKIVFLEEASQQEKLAKEWCFKPCEIRELSHHEFFMPGLVDTHIHASQYSFAGSSIDLPLLEWLTKYTFPAEHRFQNIDFAEEVYTRVVRRTLKNGTTTACYFATIHTDSSLLLADITDKFGQRAFVGKVCMDLNDTFPEYKETTEESIKETERFVSEMLQKNYSRVKPIVTPRFSLSCSETLMGELGNIAKTRDLHIQSHISENRDEVEAVKNLYPSYKNYTSVYDKNNLLTNKTVMAHGCYLSAEELNVFHERGASIAHCPNSNLSLSSGFLNVLEVLKHEVKIGLGTDVAGGYSYSMLDAIRRAVMVSNILLINKVNEKSLTLKEVFRLATLGGSQALGLDGEIGNFEVGKEFDAILINPKASDSPIDLFYGDFFGDISEAVIQKFLYLGDDRNIEEVYVGGKQVVPFSSSV”, the “soluble on expression in E. coli” value is reported as “soluble”.
For “MHHHHHHSSGVDLGTENLYFQSMGEVVMSQAIQPAHATARGELSAGQLLKWIDTTACLAAEKHAGVSCVTASVDDIQFEETARVGQVITIKAKVTRAFSTSMEISIKVMVQDMLTGIEKLVSVAFSTFVAKPVGKEKIHLKPVTLLTEQDHVEHNLAAERRKVRLQHEDTFNNLMKESSKFDDLIFDEEEGAVSTRGTSVQSIELVLPPHANHHGNTFGGQIMAWMETVATISASRLCWAHPFLKSVDMFKFRGPSTVGDRLVFTAIVNNTFQTCVEVGVRVEAFDCQEWAEGRGRHINSAFLIYNAADDKENLITFPRIQPISKDDFRRYRG” the value was “soluble”; for “MHHHHHHSSGVDLGTENLYFQSMKICSIALVGKYTKLRDCYASVFKALEHSALAINHKLNLMYIDSIDLEKITETEDPVKFHEAWQKLCKADGILVPGGFGIRGTLGKLQAISWARTKKIPFLGVCLGMQLAVIEFARNCLNLKDADSTEFRPNAPVPLVIDMPEHNPGNLGGTMRLGIRRTVFKTENSILRKLYGDVPFIEERHRHRFEVNPNLIKQFEQNDLSFVGQDVDGDRMEIIELANHPYFVGVQFHPEFSSRPMKPSPPYLGLLLAATGNLNAYLQQGCKLS”, “soluble”; for “MHHHHHHSSGVDLGTENLYFQSMQRGYLLTRNPHLNKDLAFTLEERQQLNIHGLLPPSFNSQEIQVLRVVKNFEHLNSDFDRYLLLMDLQDRNEKLFYRVLTSDIEKFMPIVYTPTVGLACQQYSLVFRKPRGLFITIHDRGHIASVLNAWPEDVIKAIVVTDGERILGLGDLGCNGMGIPVGKLALYTACGGMNPQECLPVILDVGTENEELLKDPLYIGLRQRRVRGSEYDDFLDEFMEAVSSKYGMNCLIQFEDFANVNAFRLLNKYRNQYCTFNDDIQGTASVAVAGLLAALRITKNKLSDQTILFQGAGEAALGIAHLIVMALEKEGLPKEKAIKKIWLVDSKGLIVKGRASLTQEKEKFAHEHEEMKNLEAIVQEIKPTALIGVAAIGGAFSEQILKDMAAFNERPIIFALSNPTSKAECSAEQCYKITKGRAIFASGSPFDPVTLPNGQTLYPGQGNNSYVFPGVALGVVACGLRQITDNIFLTTAEVIAQQVSDKHLEEGRLYPPLNTIRDVSLKIAEKIVKDAYQEKTATVYPEPQNKEAFVRSQMYSTDYDQILPDCYSWPEEVQ”, “soluble”.
As for “MHHHHHHSSGVDLGTENLYFQSNAMANPLYHKHIISINDLSRDELELVLRTAASLKKTPQPELLKHKVIASCFFEASTRTRLSFETSIHRLGASVVGFSDSSNTSLGKKGETLADTMSVISTYVDAIVMRHPQEGASRLAAQFSGNVPIVNAGDGANQHPTQTLLDLFTIQETQGRLDNINIAMVGDLKYGRTVHSLTQALAKFNGNHFFFIAPDALAMPAYILQMLEEKEIEYSLHESLEEVVPELDILYMTRVQKERLDPSEYANVKAQFILRSSDLTGARDNLKVLHPLPRIDEITTDVDKTPYAYYFQQAGNGIFARQALLALVLNAELAL”, the entry is “soluble”; as for “MHIERLDFENSPYLGVFGVATDRVVLIREGLQEKKLEVIRETLKVPVIEVSVMKSRIIGTLATGNSNAIILPWYVWDAEIERIKKALSEYGIDMEVVPFRSKYTALGNLILTNDKAALVSAKFSRKEAQEIGEILGVEVERGVIAGLHAVGSAGVVTNKGGLVHPETSDEELEWLSDLFKVDVYVGTANMGVPYVGTCMLANSNGVVVGHLTTGPEIVKIEEALGFV”, “soluble”; as for “MHIHILGICGTFMGGVAMLARQLGHKVTGSDANVYPPMSTMLEAQGIEIIEGFDPVQLEPKPDLVVIGNAMSRGNPCVEYVLNHNLRYTSGPQWLQDFLLHDRWVIAVSGTHGKTTTSSMIAWVLEHCGYQPGFLVGGVLGNFGISARLGESMFFVVEADEYDSAFFDKRSKFVHYHPRTLVMNNLEFDHADIFDNLEAIKRQFHHLVRTVPGNGRILAPKQDEALADVLQRGCWSETEFSGEQGEWQAEKITADGSQFHVLLKGERVGQVNWSLVGDHNVSNALMAIAAARHVGVAPELACEALGLFVNTKRRLELKGEINGVTVYDDFAHHPTAIELTLGGLRNKVGDKKIIAVLEPRSATMKLGVHKETLAASLHSADSVYLYQPSNIPWSVEEVAKQCQQPAQVSANMDEFVAMIAKEAQAGDQILVMSNGGFEGIHGKLLAALQQK”, “not soluble”.
With “MHIRTTTPVLTSLTSCNFGTASLGDTSPYCMALRPFPLGNTPLHAVIRRSAREFECVEAVPASNAVRSPSTASWVSAESLDSIISLANRTSEEMEVDQLIYRLCRSLYHVAKKKSAQIHCHPNHQERQQQQQQASSSGWRSVECEGHFSNMRGREDWCPLLHLFDPRSYYKVMGQPSQHDGCKLCGDVVGTESSPEGVSQWLMSELSVTRLTGGNSNHVYRLGHASFPKKAVLLRVYGDGGGGDVIDRARDIKVMRLMSKSEMGPGLLHTFHWGRVEEFMDGVLTCTTEKLLTSPSLLADVYGGLSKMHQLDYTPLLPENMRTKGMSNGHNSSQSVSDTVSKSGGGQEGPDGTVGGVNELESTCHTSFERVCLRLLRLVSLNVVEEHRHSLESWLAGEVMFVRRELQYRGIPVVLSHNDLNPGNILLSDGAGEASGTVFSDEELRVENTPLSKRYVTRKGKNMNLVERRGFLFIDFEYADANYRCFDLGNTLCELDYDYTRGTEAGGRGFIKYLFVFPPPAMEEAWRGLGEEYPRMPELIYDAWRRGVCDGSSDIGSVALLAVRRYFAERDNVPLETVELSEAQVGEVLLGMLASHLYWTIWSMTMGSAPDNCVECEDCDDQMFAVGGSGLDYMRYGECRLREYIALRGWLAEKGLLS”, the “soluble on expression in E. coli” value is recorded as “not soluble”.
As for “MHLLPELASHHAVSIPELLVSRDERQARQHAWLKHHPVPLVSFTVVAPGPIKDSEVTRRIFNHRVTALRALATKQGWQIQEQAALVSASGPEGMLSIAAPARDLKLATIELEHSHPLGRLWDIDVLTPEGEILSRRDYSLRLAAACCASKAQPSARVEKPIN”, the entry is “not soluble”; as for “MHMSQSTQRAYQEVLDWLEKELRKGSIAIGDKLPGERALAEQFELSRASVREAIRILTSMGLVRTGTGSGPHSGAIVISEPSAGLSWAIRMHLSARSLPLKDLVNTCILIESNAAADAATPKISPDSPERSHVLNEAHRLLDSMDDPTLPFHDYHIKDVNFHILITSLAGNLVTETIMESLRYSAIAFVIERLAMRTDWAEVSEKLQREHRNILRAIEERNPDKARTLVHDHIADFYELTSH”, “not soluble”.
For “MHNSSSSTIGKPLIPQKLPEFLNAYENFIIAGHKEPDGDCIGSCLAMSFFLKRKNKNCILMSAGPFKRTEIKEYEHLFTDKLKISDKINPKTTGLIILDCSNFDRVGEIAELISGFNYIIIDHHATNTEKSDTSLIMPEAPSTTYLIQSIIEEIGEKLTKEEADALFFGLCTDTGFFRHLDAGSAEVFAHASRLIEAGANPKQTFMKINGGKKFESRLLISRILNRMKTYYDGRLVVSYETYDDLLEFGLESRDSDILYQLIQSIEGVEAICIVRQDSPSHCSVGFRSLDKIDVSKIAASFGGGGHKQASGLYIEGKFDDLIPRFVEAFGTQMLEHHHHHH” the value was “soluble”; for “MHRCGESSVAGTDARIRLEGNRLFVGGPVTYDNVVEVIRTGDAAIKADDMLIDLAGVTWVDSSAVSMLLEWMRTAQTYDRRIEFINLPSNLADLIELYDVGSLIPTDKPAESV”, “not soluble”.
For “MHSYHNPGVPTALSIFEPLQDGSTISVHGHVRHGHHKNFAVELLSGPNVVLHVNFRFHHEHVVVMNSQFSGMWGPEIRHKNPLHHSEHFHLSIKVHAGYYHISVNGHHLADYPHRYPYQSVQAIGLKGDVHVDKVHFEGFHFQRRWDGHVDHGHSGYNAYGTETYVAPVFVQPNFMPYGAPPPPVQNFNPYR” the value was “not soluble”; for “MHTTSSPNETLSSWDSSARREQASKNNIYVTLSAKQHPRILQIYGGAYYNPKLERLLENIVRKLTVGLQNSYKSYSLTILNTQSVNAFALPNGSIYITRGMLTLANDSSEVAAILAHEIAHITANHGILRLQKKAELKTTERISSNLLSLSGEKIHKSIENKRKLAQFSRNQELQADSIALEMLKQAGYDPFSLPRFLQSMAAYSLFRSIPGSQNAPLGFLITHPTTPQRIRLAIEKAHKISSANTGNTDRDAFLKSIDGMIFGGSPHTGFVQNNQFIHPQLGITFSVPQNFIIENSAHTVWASGPDKIAIRFDAIPHPAEISASEYLQSGWLAGLDKSSVHPFIIQGLPGAHARARNAQWQFDVVVILFNNHVLRFLTAAPHDSQNFAEIAEKTVQSFRFLSSSQLKKLKPLRIRIVRVQKGESVASLAKKMQNIPHNEKLFRILNSLSPSQALQTGAAVKIITQLEHHHHHH”, “not soluble”.
On to “MHVIDLSYFVKIYRSKNKHFSVNFLRHLHRAGDLHLSGTTRCIYEDVIMKKCLTLLIATVLSGISLTAYAAQPMSNLDSGQLRPAGTVSATGASNLSDLEDKLAEKAREQGAKGYVINSAGGNDQMLGTATIYKLEHHHHHH”, for which the “soluble on expression in E. coli” value was “not soluble”.
For “MHVSPFDWRYGSEEIRRLFTNEAIINAYLEVERALVCALEELGVAERGCCEKVNKASVSADEVYRLERETGHDILSLVLLLEQKSGCRYVHYGATSNDIIDTAWALLIRRALAAVKEKARAVGDQLASMARKYKTLEMVGRTHGQWAEPITLGFKFANYYYELYIACRQLALAEEFIRAKIGGAVGTMASWGELGLEVRRRVAERLGLPHHVITTQVAPRESFAVLASALALMAAVFERLAVEIRELSRPEIGEVVEGGGGSSAMPHKANPTASERIVSLARYVRALTHVAFENVALWHERDLTNSANERVWIPEALLALDEILTSALRVLKNVYIDEERITENLQKALPYILTEFHMNRMIKEGASRAEAYKKAKEVKALTFEYQKWPVERLIEDALSLKLC”, the “soluble on expression in E. coli” value is on record as “soluble”.
Take “MHWGVGFASSRPCVVDLSWNQSISFFGWWAGSEEPFSFYGDIIAFPLQDYGGIMAGLGSDPWWKKTLYLTGGALLAAAAYLLHELLVIRKQQEIDSKDAIILHQFARPNNGVPSLSPFCLKMETYLRMADLPYQNYFGGKLSAQGKMPWIEYNHEKVSGTEFIIDFLEEKLGVNLNKNLGPHERAISRAVTKMVEEHFYWTLAYCQWVDNLNETRKMLSLSGGGPFSNLLRWVVCHITKGIVKREMHGHGIGRFSEEEIYMLMEKDMRSLAGLLGDKKYIMGPKLSTLDATVFGHLAQAMWTLPGTRPERLIKGELINLAMYCERIRRKFWPEWHHDDDNTIYESEESSEGSKTHTPLLDFSFYSRTETFEDEGAENSFSRTPDTDFTGHSLFDSDVDMDDYTDHEQCK”: the “soluble on expression in E. coli” value is “not soluble”.
With “MIALGIEGTAWSLSIGVVDEEGVIALENDPYIPKEGGIHPREASQHHSERLPSLLSRVFEKVDKNSIDVVAFSQGPGMGPCLRVVATAARLLAIKLEKPLVGVNHCLAHVEVGRWQTGARKPVSLYVSGGNSQVIARRGNRYRVFGETLDIGIGNALDKLARHMGLKHPGGPKIEELAKKGQKYHFLPYVVKGMDFSFSGMVTAAQRLFDSGVRMEDVAFSFQETAFAMLTEVTERALAYLDLNEVLLVGGVAANKRLQEMLRIMCEDRGAKFYVPPKELAGDNGAMIAYTGLLMYKHGHQTPVEKSYVRPDFRIEDVEVNWD”, the “soluble on expression in E. coli” value was “soluble”.

These data come from the DeepSol protein solubility set.
